Test results published in PMC4980809 (2016).

Molecular target: F-actin (skeletal muscle actin) (Oryctolagus cuniculus, UniProt P68135)
Assay: actin co-sedimentation assay

B1: Alpha-actinin-2 19-266 (protein)
chain: YMIQEEEWDRDLLLDPAWEKQQRKTFTAWCNSHLRKAGTQIENIEEDFRNGLKLMLLLEVISGERLPKPDRGKMRFHKIANVNKALDYIASKGVKLVSIGAEEIVDGNVKMTLGMIWTIILRFAIQDISVEETSAKEGLLLWCQRKTAPYRNVNIQNFHTSWKDGLGLCALIHRHRPDLIDYSKLNKDDPIGNINLAMEIAEKHLDIPKMLDAEDIVNTPKPDERAIMTYVSCFYHAFAGAEQAETAA
- Kd: 7.5 µM
